Measurements published in patent publication US10238736B2, “Adjuvant compositions” (priority 2008, dated 2019).

System: OVA-specific CTL responses
Experiment: Relative CTL/cytokine/tetramer responses of mice immunized with OVA
Type: in vivo, C57131/6 mice
Description: Female C57131/6 mice (n=10 per group) with a body weight of about 18-20 g were used in the study. They were immunized via intramuscular (IM) injection into the left tibialis anterior muscle with a total volume of 50 μl on study days 0, 14 and 21.
A dose of the composition comprised, in various combinations, one or more of the following components: • Buffer: NaH2PO4.2H20 (229.32 mg/L), NaCl (1168.00 mg/L) and Na2HPO4 (1144.00 mg/L), dissolved in WFI and sterile filtered with a 0.1 μm filter. • Ovalbumin (OVA—Antigen): 10 μg • CpG ODN: 10 μg • Cholesterol: 1 μg • Quil A: 1 μg • DDA: 0.5 μg • Carbopol: 0.0375% • R1005: 50 μg Vaccine Preparation
Buffer was placed in a 50 ml flask with stir bar and stirred at a constant speed throughout all following steps. The components were added in the following order: Antigen (OVA); CPG ODN; Quil A; cholesterol (drop wise); DDA (drop wise); Carbopol®; and Bay R1005®. The composition was stirred at room temperature (approximately 25° C.) for a minimum of 30 minutes while protected from light by covering with foil. The solution was forced through a 25G needle into a syringe to break any large floating particles to obtain a uniform (cloudy) suspension and transferred to sterile glass vials for storage.
The following samples were collected: • Plasma: 4 weeks after the prime vaccination (1 week after second booster vaccination) • Cytotoxic T lymphocyte (CTL) (6 weeks after the prime vaccination (3 weeks after second booster vaccination) • Cytokine secretion in supernatant (4 weeks after the prime vaccination • 24-hour supernatant (IL-2, IL-4, IL-10, TNF • 72-hour supernatant (IFN-g • Tetramer (4 weeks after the prime vaccination • Cytokine producing T cells (6 weeks after the prime vaccination
The results are provided as a relative score that for each adjuvant showing the effect of the adjuvant. The endpoints are a relative scale based on the sum of the individual Cytotoxic T—Lymphocyte responses.

B1: OVA: Ovalbumin antigen, 10 μg, without adjuvant (protein, UniProt P01012 2-386, looked up)
Ovalbumin: GSIGAASMEFCFDVFKELKVHHANENIFYCPIAIMSALAMVYLGAKDSTRTQINKVVRFDKLPGFGDSIEAQCGTSVNVHSSLRDILNQITKPNDVYSFSLASRLYAEERYPILPEYLQCVKELYRGGLEPINFQTAADQARELINSWVESQTNGIIRNVLQPSSVDSQTAMVLVNAIVFKGLWEKAFKDEDTQAMPFRVTEQESKPVQMMYQIGLFRVASMASEKMKILELPFASGTMSMLVLLPDEVSGLEQLESIINFEKLTEWTSSNVMEERKIKVYLPRMKMEEKYNLTSVLMAMGITDVFSSSANLSGISSAESLKISQAVHAAHAEINEAGREVVGSAEAGVDAASVSEEFRADHPFLFCIKHIATNAVLFFGRCVSP
Relative score, 4 weeks after the prime vaccination
  Relative CTL Responses: Tetramer: 1
Relative score, 6 weeks after the prime vaccination
  Relative CTL Responses: CTL: 1
Relative score, 24-hour supernatant
  Relative CTL Responses: IL-2: 1
Relative score, 72-hour supernatant
  Relative CTL Responses: IFN-g: 1
Sum of the individual relative scores
  Relative CTL Responses: Total: 4
